Results published in US20190201496A1.
pKd: −log10 of the molar value.

Molecular target: mβ2m
Test: SPR; pH 6

| Substance | pKd |
| --- | --- |
| Human AFP N-His | 6.55 |
| Mouse AFP N-His | 5.99 |
